Article PMC3772097

test system: ORC (origin recognition complex) (Saccharomyces cerevisiae); assay: EMSA; settings: 25 mM Tris-HCl pH 8.0, 5 mM MgCl2, 150 mM KCl, 40 ug BSA, 5% glycerol, 5 mM DTT, 1 ug calf-thymus DNA, 2 mM ATP; 5 pM probe, ORC 0.3-30 nM; 25 C 20 min; 3.5% …

Substance	Kd [µM]
ARS1323 probe	0.0586
ARS1114 probe	0.0333
ARS720 probe	0.0339
ARS1307 probe	0.0837
ARS512 probe	0.0551
ARS423 probe	0.00676
ARS818 probe	0.094
ARS1332 probe	0.0353
ARS1513 probe	0.0563
ARS1413 probe	0.419
ARS1320 probe	0.0209
ARS1405 probe	0.0972
ARS911 probe	0.0873
ARS1021 probe	0.0179
ARS1529.5 probe	0.192
ARS214 probe	0.0413
ARS1005 probe	> 0.419
ARS1625 probe	0.00867
ARS428 probe	0.0916
ARS822 probe	0.26
ARS201 probe	0.0201
ARS1631 probe	0.0268
ARS422 probe	0.00985

Substance	Kd [µM]
ARS728 probe	0.00838
ARS105 probe	> 0.419
ARS1325 probe	0.063
ARS1011 probe	0.0111
ARS1601 probe	0.0328
ARS1123 probe	0.0123
ARS1215 probe	0.0558
ARS219.5 probe	> 0.419
ARS824 probe	0.0381
ARS1004 probe	0.0923
ARS1528 probe	> 0.419
ARS317 (HMR-E) probe	0.00722
ARS604 probe	0.061
ARS920 probe	0.00865
ARS514 probe	0.00412
ARS1015 probe	0.0631
ARS416 (ARS1) probe	0.0351
ARS716 probe	0.0392
ARS1521 probe	0.0901
ARS1420 probe	0.0178
ARS305 probe	0.0331
ARS516 probe	0.0278
ARS1329 probe	0.0768
